# B1: recombinant human C1 esterase inhibitor (rhC1-INH) (other)
# chain: NPNATSSSSQDPESLQDRGEGKVATTVISKMLFVEPILEVSSLPTTNSTTNSATKITANTTDEPTTQPTTEPTTQPTIQPTQPTTQLPTDSPTQPTTGSFCPGPVTLCSDLESHSTEAVLGDALVDFSLKLYHAFSAMKKVETNMAFSPFSIASLLTQVLLGAGQNTKTNLESILSYPKDFTCVHQALKGFTTKGVTSVSQIFHSPDLAIRDTFVNASRTLYSSSPRVLSNNSDANLELINTWVAKNTNNKISRLLDSLPSDTRLVLLNAIYLSAKWKTTFDPKKTRMEPFHFKNSVIKVPMMNSKKYPVAHFIDQTLKAKVGQLQLSHNLSLVILVPQNLKHRLEDMEQALSPSVFKAIMEKLEMSKFQPTLLTLPRIKVTTSQDMLSIMEKLEFFDFSYDLNLCGLTEDPDLQVSAMQHQTVLELTETGVEAAAASAISVARTLLVFEVQQPFLFVLWDQQHKFPVFMGRVYDPRA
# modifications: heavily N- and O-glycosylated, sialylated (CHO-expressed)
# Biological target: T1, C1 esterase (UniProt P09871 16-688, limits assumed)
# T1 sequence (looked up): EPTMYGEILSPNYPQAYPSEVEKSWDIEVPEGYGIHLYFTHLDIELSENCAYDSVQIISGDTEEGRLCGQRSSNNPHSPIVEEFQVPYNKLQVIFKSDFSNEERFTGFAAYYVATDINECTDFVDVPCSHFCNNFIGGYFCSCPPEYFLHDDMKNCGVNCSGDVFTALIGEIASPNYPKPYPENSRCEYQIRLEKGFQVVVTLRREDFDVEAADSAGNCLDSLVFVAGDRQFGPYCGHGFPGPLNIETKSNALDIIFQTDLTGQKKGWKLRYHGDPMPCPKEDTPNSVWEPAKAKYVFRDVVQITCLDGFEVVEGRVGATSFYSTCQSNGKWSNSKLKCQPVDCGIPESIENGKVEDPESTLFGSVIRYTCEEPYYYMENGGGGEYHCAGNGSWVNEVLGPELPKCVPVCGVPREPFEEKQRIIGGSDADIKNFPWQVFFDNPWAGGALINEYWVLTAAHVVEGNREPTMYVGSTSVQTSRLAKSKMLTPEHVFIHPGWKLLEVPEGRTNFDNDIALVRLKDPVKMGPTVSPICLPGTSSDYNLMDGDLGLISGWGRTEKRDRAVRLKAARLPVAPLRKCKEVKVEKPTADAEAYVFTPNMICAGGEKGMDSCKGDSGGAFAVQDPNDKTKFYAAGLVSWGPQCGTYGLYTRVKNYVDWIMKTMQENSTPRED
# Experiment: cell-based or functional assay
binder,measurement,value
B1,potency relative to the initial development reference standard,121%

# Source: US20180334493A1 (Takeda / Millennium, published 2018)
